The results in this text go back to patent publication US20200055939A1 (Genentech, published 2020).

Positions count from the first letter of the chain named. Read-outs that look alike come from different tables or passages of the source.

Assay [1] has as its target T1, MICA008.His (human MICA*008 alpha 3 domain, His tagged) (human).
T1 construct: Also used for FPOP (expressed in CHO); also called huMICA*008 alpha 3-his; MICA*008 a3
T1 chain: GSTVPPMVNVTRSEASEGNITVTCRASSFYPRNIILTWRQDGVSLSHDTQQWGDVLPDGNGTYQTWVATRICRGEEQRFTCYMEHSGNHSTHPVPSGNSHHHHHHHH
The assay can be described thus: SPR, antibody captured.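 Further: SPR with antibody held by surface-bound anti-Fc while His-tagged alpha three domains flow over, Kd derived by fitting a one-to-one binding model to sensograms.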

Assay [2] addresses T2, MICA002.His (human MICA*002 alpha 3 domain, His tagged) (human).
T2 construct: also called huMICA*002 alpha 3-his
T2 chain: T1 chain with S28G, R32W, I35T, T37S, R73Q
The assay can be described thus: SPR, antibody captured.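 Further: SPR with antibody held by surface-bound anti-Fc while His-tagged alpha three domains flow over, Kd derived by fitting a one-to-one binding model to sensograms.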

In assay [3] the target is T3, MICB005.His (human MICB*005 alpha 3 domain, His tagged) (human).
T3 construct: also called huMICB*005 alpha 3-his
T3 chain: T1 chain with R12C, A15V, I35T, D48N, C72R, R73Q, S90G
The assay can be described thus: SPR, antibody captured.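 Further: SPR with antibody held by surface-bound anti-Fc while His-tagged alpha three domains flow over, Kd derived by fitting a one-to-one binding model to sensograms.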

The target in assay [4] is T4, MICA004.His (human MICA*004 alpha 3 domain, His tagged) (human).
T4 construct: also called huMICA*004 alpha 3-his
T4 chain: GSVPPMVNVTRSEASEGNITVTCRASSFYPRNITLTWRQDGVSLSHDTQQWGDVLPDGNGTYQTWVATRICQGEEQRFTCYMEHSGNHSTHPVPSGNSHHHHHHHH
The assay can be described thus: SPR, antibody captured.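 Further: SPR with antibody held by surface-bound anti-Fc while His-tagged alpha three domains flow over, Kd derived by fitting a one-to-one binding model to sensograms.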

The target in assay [5] is T5, MICA.008.a3.T204-S297.E215N.mIgG2a.Glyco12 (human; mouse, UniProt Q29983 204-297, engineered N-linked glycosylation site E215N).
T5 construct: not shown: murine IgG2a Fc
T5 chain: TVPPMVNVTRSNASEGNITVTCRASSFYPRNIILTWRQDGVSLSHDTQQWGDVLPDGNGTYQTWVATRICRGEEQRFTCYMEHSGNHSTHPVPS
The assay can be described thus: ELISA, coated variant.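 Further: ELISA with plates coated at 2 ug/ml with MICA*008 alpha 3 glycosylation variants as murine IgG2a Fc fusions, antibody binding detected by HRP anti-human IgG Fc and TMB absorbance.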

In assay [6] the target is T6, MICA.008.a3.T204-S297.C-terminal insert of N298.G299.S300.mIgG2a.Glyco17 (human; mouse, UniProt Q29983 204-297, engineered N-linked glycosylation site at inserted N298).
T6 construct: not shown: murine IgG2a Fc
T6 chain: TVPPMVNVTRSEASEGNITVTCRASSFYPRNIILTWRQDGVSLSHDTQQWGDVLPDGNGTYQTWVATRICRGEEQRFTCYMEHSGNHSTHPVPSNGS
The assay can be described thus: ELISA, coated variant.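 Further: ELISA with plates coated at 2 ug/ml with MICA*008 alpha 3 glycosylation variants as murine IgG2a Fc fusions, antibody binding detected by HRP anti-human IgG Fc and TMB absorbance.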

Assay [7] addresses T7, MICA.008.a3.R202-S297.R202N mIgG2a.Glyco11 (human; mouse, UniProt Q29983 203-297, engineered N-linked glycosylation site R202N).
T7 construct: not shown: murine IgG2a Fc
T7 chain: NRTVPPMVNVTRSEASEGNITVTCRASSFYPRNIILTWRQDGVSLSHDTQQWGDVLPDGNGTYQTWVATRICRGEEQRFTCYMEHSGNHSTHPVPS
The assay can be described thus: ELISA, coated variant.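 Further: ELISA with plates coated at 2 ug/ml with MICA*008 alpha 3 glycosylation variants as murine IgG2a Fc fusions, antibody binding detected by HRP anti-human IgG Fc and TMB absorbance.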

In assay [8] the target is T8, MICA.008.a3.T204-S297.I236T.mIgG2a.Glyco13 (human; mouse, UniProt Q29983 204-297, engineered N-linked glycosylation site created by I236T).
T8 construct: not shown: murine IgG2a Fc
T8 chain: T5 chain with N12E, I33T
The assay can be described thus: ELISA, coated variant.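 Further: ELISA with plates coated at 2 ug/ml with MICA*008 alpha 3 glycosylation variants as murine IgG2a Fc fusions, antibody binding detected by HRP anti-human IgG Fc and TMB absorbance.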

Assay [9] concerns the target T9, MICA.008.a3.T204-S297.H248N.mIgG2a.Glyco15 (human; mouse, UniProt Q29983 204-297, engineered N-linked glycosylation site H248N).
T9 construct: not shown: murine IgG2a Fc
T9 chain: T5 chain with N12E, H45N
The assay can be described thus: ELISA, coated variant.

Assay [10] deals with T10, MICA*008 on MEL-JUSO cells (human, UniProt Q29983 24-317).
T10 chain: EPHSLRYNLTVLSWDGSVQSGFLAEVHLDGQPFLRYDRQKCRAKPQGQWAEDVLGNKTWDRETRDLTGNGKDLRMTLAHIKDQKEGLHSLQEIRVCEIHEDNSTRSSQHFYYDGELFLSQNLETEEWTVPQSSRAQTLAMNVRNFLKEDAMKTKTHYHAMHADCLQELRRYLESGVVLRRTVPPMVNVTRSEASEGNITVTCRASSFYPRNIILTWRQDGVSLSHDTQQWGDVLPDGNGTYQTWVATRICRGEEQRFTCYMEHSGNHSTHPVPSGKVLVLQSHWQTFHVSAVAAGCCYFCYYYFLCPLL
The assay can be described thus: cell-based or functional assay.

Assay [11] deals with T11, MICA*004 on HCC1534 cells (human, UniProt Q29983 24-383). The assay can be described thus: cell-based or functional assay.
In assay [12] the target is T12, MICB*005 on HCC1534 cells (human, UniProt Q29980 23-383).
T12 sequence (looked up): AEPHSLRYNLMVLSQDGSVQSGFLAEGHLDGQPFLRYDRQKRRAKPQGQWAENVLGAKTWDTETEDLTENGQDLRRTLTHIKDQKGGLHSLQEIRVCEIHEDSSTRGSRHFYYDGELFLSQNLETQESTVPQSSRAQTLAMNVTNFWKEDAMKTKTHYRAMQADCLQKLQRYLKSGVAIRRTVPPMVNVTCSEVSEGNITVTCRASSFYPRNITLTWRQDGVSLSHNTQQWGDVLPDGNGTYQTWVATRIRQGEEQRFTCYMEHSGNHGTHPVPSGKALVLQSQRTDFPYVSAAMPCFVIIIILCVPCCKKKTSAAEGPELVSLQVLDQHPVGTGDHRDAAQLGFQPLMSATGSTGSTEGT
The assay can be described thus: cell-based or functional assay.

Assay [13] deals with T1, MICA008.His (human MICA*008 alpha 3 …). The assay can be described thus: SPR (Biacore), MICA*008 alpha-3 domain.
In assay [14] the target is T12, MICB*005 on HCC1534 cells. The assay can be described thus: cell-based or functional assay. The source holds these as a separate data set.
Assay [15] concerns the target MICA*002 on cells (PANC-1; B16-MICA002) (human, UniProt Q29983 24-383). The assay can be described thus: cell-based or functional assay.
In assay [16] the target is T10, MICA*008 on MEL-JUSO cells. The assay can be described thus: cell-based or functional assay.
The target in assay [17] is T11, MICA*004 on HCC1534 cells. The assay can be described thus: cell-based or functional assay. The source holds these as a separate data set.

B1: 6F8.7 (antibody, V domains shown)
VH: DVQLQGSGPGLVKPSQSLSLTCSVTGYSITNDYYWNWIRQFPGNKLEWMGFISFGGSNNYNPSLKNRISITRDTSKNQFFLKLSSVTTEDTATYYCARYDGRGAWFAYWAQGTLVTVSA
VL: DIQMTQSPASLSASVGETVTITCRASGNIHNYLAWYQQKQGKSPQLLVYDAITLADGVPSRFSGSGSGTQYSLKINSLQPEDFGNYYCQHFWSFPLTFGAGTKVEIK
notes: Mouse hybridoma antibody; constant regions differ by assay
As for B1, the dissociation constant (Kd) worked out at 8.4 nM in [1], 2.4 nM in assay [2], 14.5 nM in [3] and 6.2 nM in [4]. Moreover, the binding result in assay [5], in assay [6], in assay [7], in assay [8] and in [9] was “binds” throughout. In addition, the results for the “% max inhibition of shedding” value in [10] and in assay [11] were 47.5% and 70%, respectively. Also, the “EC50 of shedding inhibition” value in [10] came out at 0.163 µg/mL; in assay [11] it was 0.251 µg/mL.

B2: 7D4.6 (antibody, V domains shown)
VH: DVQLQESGPGLVKPSQSLSLTCTVTGYSITSDYAWNWIRQFPRNKLEWMGYINYSGTTNYNPSLKSRISITRDTSKNQFFLQLISVTTEDTATYYCSYYRYDGAWFPYWGQGTLVTVSA
VL: B1 VL with D50N, T53M, G64A, N85S
notes: as for B1
Turning to B2, the Kd worked out at 10 nM in assay [1], 3.5 nM in [2], 20 nM in assay [3] and 8.9 nM in [4]. In addition, the binding result in [5], in [6], in [7], in assay [8] and in [9] was “binds” each time. For the same molecule, the entries for the “% max inhibition of shedding” value in assay [10] and in [11] were 26% and 63%, respectively. Also, the “EC50 of shedding inhibition” value in assay [11] came out at 0.185 µg/mL.

B3: 32D2 (antibody, V domains shown)
VH: DVHLVESGGGLVQPGGSRKLSCAASGFTFNTFGMNWVRQAPEKGLEWVAYINSGSNTIYYADTVKGRFTISRDNPKNTLFLQMTSLRSEDTAMYYCTRWEPVTGGFSYWGQGTLVTVSA
VL: QIVLTQSPAFKSSSLGERVTMTCTASSSISSSYLHWYQQKPGSSPKLWIYTTSNLASGVPARFSGSGSGTSYSLTISTMEAEDAATYYCHQHHRSPFTFGSGTKVEIK
notes: as for B1
As to B3, the Kd in [1] stood at 1.94 nM; in assay [2], 3.18 nM; in assay [3], 2.82 nM; in [4], 2.85 nM; in [13] it was 4 nM. Further, the binding result in [5], in [6], in assay [7], in assay [8] and in [9] was “binds” each time. Further, the “% max inhibition of shedding” value in assay [12] was 54%; in [10] it was 71%; in [11], 76%. Besides, the “EC50 of shedding inhibition” value in [12] came out at 0.0781 µg/mL; in [10], 0.0303 µg/mL; in assay [11], 0.0592 µg/mL.

B4: 3E11 (antibody, V domains shown)
VH: EIQLQQSGPELVKPGASVKVSCTASGYAFTKYNIYWVKQSHGKSLEWIGYIDPYTGGTISNQKFTGRATLTVDKSSSTAYLHLNSLTSEDSAVYYCARPGSYWYFGVWGAGTTVTVSS
VL: DILMTQTPLSLPVSLGDQASISCRSSQSIVYTNGNTNLEWYLQKPGQSPKLLIYKVSNRFSGVPDRFSGSGSGTDFTLKISRVEAEDLGVYYCFQASYVPFTFGSGTKVEIK
notes: as for B1
On to B4, for which the dissociation constant (Kd) in [1] is 2.5 nM; in assay [2] it was 7.7 nM; in assay [3], 6.8 nM; in assay [4] it was 5 nM. Besides, the binding result in assay [5], in assay [6], in [7], in assay [8] and in [9] was “binds” in each case. Further, the results for the “% max inhibition of shedding” value in assay [10] and in assay [11] were 70% and 55%, respectively. For the same molecule, the figures for the “EC50 of shedding inhibition” value in [10] and in assay [11] were 0.265 µg/mL and 0.309 µg/mL, respectively.

B5: 15F11 (antibody, V domains shown)
VH: EIQLQQSGPELVKPGASVRVSCKPSGYAFTSNNIYWVKQSRRKSLEWIGYIDPYIGRIIYNQQFKDKATLTVDKSSSTAYMHLNSLTSEDSAVYYCSRSGERSNFDYWGQGTTLTVSS
VL: EIVLTQSPTAMAASPGEKITITCSASSSISSNYLHWYQQKPGFSPKLLIYRTSNLASGVPARFSGSGSGTSYSLTIGPMEAEDVATYYCQQGGSLPLTFGAGTKVEIK
notes: Mouse variable domains; constant regions differ by assay
As for B5, the dissociation constant (Kd) in [1] was 1.02 nM; in assay [2], 3.05 nM; in assay [3] it was 3.28 nM; in assay [4] it was 1.22 nM. Also, the binding result in assay [5], in assay [6], in assay [7], in [8] and in [9] was “binds” throughout. Besides, the “EC50 of shedding inhibition” value in assay [14] amounted to 0.102 µg/mL; in assay [15] it was 0.0752 µg/mL; in [16] it was 0.0255 µg/mL; in [17] it was 0.0375 µg/mL; in assay [12], 0.0736 µg/mL; in [10], 0.0165 µg/mL. The “EC50 of shedding inhibition” value in [11] worked out at 0.0485 µg/mL. The “Max % Inhibition of shedding” value in assay [14] was 60%; in [15] it was 54%; in [16], 73%; in [17], 64%. The “% max inhibition of shedding” value in assay [12] is 59%; in assay [10], 74%; in assay [11] it was 86%.
